From PMC4156530 (Journal of neurochemistry, 2014)

B1: human DJ-1 C106S, recombinant, tag-cleaved (natural protein)
chain: GSHMASKRALVILAKGAEEMETVIPVDVMRRAGIKVTVAGLAGKDPVQCSRDVVICPDASLEDAKKEGPYDVVVLPGGNLGAQNLSESAAVKEILKEQENRKGLIAAISAGPTALLAHEIGFGSKVTTHPLAKDKMMNGGHYTYSENRVEKDGLILTSRGPGTSFEFALAIVEALNGKEVAAQVKAPLVLKD
B2: human DJ-1 E18Q, recombinant, tag-cleaved (natural protein)
chain: GSHMASKRALVILAKGAEEMQTVIPVDVMRRAGIKVTVAGLAGKDPVQCSRDVVICPDASLEDAKKEGPYDVVVLPGGNLGAQNLSESAAVKEILKEQENRKGLIAAICAGPTALLAHEIGFGSKVTTHPLAKDKMMNGGHYTYSENRVEKDGLILTSRGPGTSFEFALAIVEALNGKEVAAQVKAPLVLKD
modifications: unlabelled preparation fully reduced; the 15N-labelled preparation of the NMR experiment 43% oxidised (Cys106-SO2-)
B3: human DJ-1 E18D, recombinant, tag-cleaved (natural protein)
chain: GSHMASKRALVILAKGAEEMDTVIPVDVMRRAGIKVTVAGLAGKDPVQCSRDVVICPDASLEDAKKEGPYDVVVLPGGNLGAQNLSESAAVKEILKEQENRKGLIAAICAGPTALLAHEIGFGSKVTTHPLAKDKMMNGGHYTYSENRVEKDGLILTSRGPGTSFEFALAIVEALNGKEVAAQVKAPLVLKD
modifications: uniformly 15N-labelled in the NMR experiment; fully reduced

Key:
cross-linking = biological target: the molecule itself; experiment: cross-linking
AUC = biological target: the molecule itself; experiment: AUC

Protein | binding result (cross-linking) | stoichiometry N (AUC)
B1 | binds | 
B2 |  | 2
B3 |  | 2
